Results on 1 molecule are retold here after patent US20210369822A1 (published 2021).

The assay has as its target hERG (UniProt Q12809 1-1159). In words: cell-based or functional assay.

hERG, sequence (Q12809 whole entry): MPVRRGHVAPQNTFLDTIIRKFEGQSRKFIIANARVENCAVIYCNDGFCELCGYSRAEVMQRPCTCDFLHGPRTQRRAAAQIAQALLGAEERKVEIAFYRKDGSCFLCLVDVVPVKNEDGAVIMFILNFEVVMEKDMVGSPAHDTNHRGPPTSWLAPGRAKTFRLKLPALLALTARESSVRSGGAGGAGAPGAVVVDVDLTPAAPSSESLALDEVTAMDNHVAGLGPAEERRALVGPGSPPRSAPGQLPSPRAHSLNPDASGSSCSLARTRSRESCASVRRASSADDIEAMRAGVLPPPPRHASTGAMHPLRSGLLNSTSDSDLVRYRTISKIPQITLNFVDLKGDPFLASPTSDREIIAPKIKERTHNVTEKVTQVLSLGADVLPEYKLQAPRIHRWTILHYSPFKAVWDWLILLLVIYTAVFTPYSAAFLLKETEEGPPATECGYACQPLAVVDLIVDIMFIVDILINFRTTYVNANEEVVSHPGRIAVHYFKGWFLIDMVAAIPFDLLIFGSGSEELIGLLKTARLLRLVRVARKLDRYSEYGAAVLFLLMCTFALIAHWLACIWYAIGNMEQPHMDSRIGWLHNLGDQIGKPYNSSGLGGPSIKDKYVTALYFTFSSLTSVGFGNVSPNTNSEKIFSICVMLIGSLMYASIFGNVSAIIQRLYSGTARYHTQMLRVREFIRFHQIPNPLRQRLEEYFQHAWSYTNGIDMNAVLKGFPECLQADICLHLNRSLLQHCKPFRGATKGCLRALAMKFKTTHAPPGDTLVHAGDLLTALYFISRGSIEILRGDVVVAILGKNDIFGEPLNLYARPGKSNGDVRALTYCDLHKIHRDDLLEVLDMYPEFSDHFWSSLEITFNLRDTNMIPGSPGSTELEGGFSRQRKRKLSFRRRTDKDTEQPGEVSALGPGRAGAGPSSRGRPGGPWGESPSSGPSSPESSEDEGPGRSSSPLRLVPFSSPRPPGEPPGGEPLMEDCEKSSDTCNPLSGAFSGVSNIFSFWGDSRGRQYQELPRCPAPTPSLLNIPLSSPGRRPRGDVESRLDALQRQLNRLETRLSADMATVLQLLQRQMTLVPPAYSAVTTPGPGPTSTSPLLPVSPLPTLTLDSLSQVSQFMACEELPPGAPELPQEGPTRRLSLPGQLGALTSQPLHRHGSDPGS

Turning to VKFNKPFVFLMIEQNTK [SP16], the “IC50 value (µM), hERG FastPatch assay” value is above 25 µM.
